Experiments:
[1] = molecular target: T1, CD24-his protein (human, UniProt P25063 27-59, posttranslational modification (purified from mammalian cell)); test: standard ELISA on CD24-his
T1 construct: Purified from mammalian (HEK293) cells; also called soluble recombinant CD24 protein; human HEK293 purified CD24-his protein; not shown: His tag
T1 chain (looked up): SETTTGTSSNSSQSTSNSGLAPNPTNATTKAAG
From the text: (§1) Since human CD24 contains only 33 core amino acids, and is heavily glycosylated, two different proteins were used to perform protein binding assay. CD24-his protein was purified from mammalian cell and as modified by posttranslational modification. While CD24-GST was purified from E. coli with no PTM.

[2] = molecular target: T2, human CD24 on cells (human, UniProt P25063 27-59); test: flow cytometry (GMFI), NALM6 cells
T2 construct: whole, on cells; One molecule for all cell lines; the cell line is named under assay or readout; also called cell surface CD24; cell-based CD24
T2 chain (looked up): T1 chain (looked up)
Method: (§2) Antibodies were 4-fold serially diluted from 40 μg/mL and incubated with MCF7 cells (panel A), OVCAR3 cells (panel B), A549 cells (panel C), and NALM6 cells (panel D) cells for 30 minutes at 4° C. in FACS buffer. Then, PE conjugated-anti-human IgG (H+L) antibody was added and incubated for another 30 minutes. After washing, geometric mean fluorescence intensity (GMFI) of PE was evaluated by FACS.
(§3) Here we used four CD24 highly expressed tumor cell lines MCF7 (breast cancer), OVCAR3 (ovarian cancer), A549 (lung cancer), and NALM6 ([…]).

[3] = molecular target: T2, human CD24 on cells; test: cell-based or functional assay
[4] = molecular target: T1, CD24-his protein; test: ELISA, CD24-his (HEK 293), unit taken from the concentration axis
From the text: as §1

[5] = molecular target: T2, human CD24 on cells; test: flow cytometry on MCF7, OVCAR3, A549 and NALM6 cells
Method: as §2, §3

[6] = molecular target: T2, human CD24 on cells; test: flow cytometry (GMFI), MCF-7 cells
Method: as §2, §3

[7] = molecular target: T2, human CD24 on cells; test: flow cytometry (GMFI), A549 cells
Method: as §2, §3

[8] = molecular target: T2, human CD24 on cells; test: flow cytometry (GMFI), OVCAR3 cells
Method: as §2, §3

- EC50 [1]: 10.1 µg/mL
- EC50 (read off the curve) [2]: ~0.3 µg/mL
- EC50 of macrophage mediated phagocytosis against multiple tumor cells [3]: 1.97 to 2.45 nM
- EC50 [4]: 0.0101 µg/mL
- EC50 [5]: 1.2 to 2.11 nM
- EC50 (read off the curve) [6]: ~0.2 µg/mL
- EC50 (read off the curve) [7]: ~0.2 µg/mL
- EC50 (read off the curve) [8]: ~0.3 µg/mL
B1: 4451HM15-IgG1-3A (antibody, V domains shown)
VH: QVQLVQSGAEVKKPGASVKVSCKASGYDFTGYHMGWVRQAPGQGLEWMGEINPITSDKYFNQKFKSRVTMTRDTSISTAYMELSRLRSDDTAVYYCARRDYGTSLDYWGQGTTVTVSS
VL: DIQLTQSPSFLSASVGDRVTITCRASASISKYLAWYQQKPGKAPKLLIYAGSTLHSGIPSRFRGSGSGTEFTLTISSLQPEDFATYYCQQHNEYPITFGQGTKLEIKR
notes: Produced in a CHO-based system

Source: US20260265403A1 (TJ BIOPHARMA SHANGHAI, published 2026)
